Reference: PMC4681132 (Nature, 2015)

B2: Pol III stalk (subunits C17 and C25) (complex, S. cerevisiae)
chain 1: MKVLEERNAFLSDYEVLKFLTDLEKKHLWDQKSLAALKKSRSKGKQNRPYNHPELQGITRNVVNYLSINKNFINQEDEGEERESSGAKDAEKSGISKMSDESFAELMTKLNSFKLFKAEKLQIVNQLPANMVHLYSIVEECDARFDEKTIEEMLEIISGYA
chain 2: MFILSKIADLVRIPPDQFHRDTISAITHQLNNKFANKIIPNVGLCITIYDLLTVEEGQLKPGDGSSYINVTFRAVVFKPFLGEIVTGWISKCTAEGIKVSLLGIFDDIFIPQNMLFEGCYYTPEESAWIWPMDEETKLYFDVNEKIRFRIEREVFVDVKPKSPKERELEERAQLENEIEGKNEETPQNEKPPAYALLGSCQTDGMGLVSWWE
B4: RNA polymerase III subunit C82 (natural protein, S. cerevisiae)
chain: MDELLGEALSAENQTGESTVESEKLVTPEDVMTISSLEQRTLNPDLFLYKELVKAHLGERAASVIGMLVALGRLSVRELVEKIDGMDVDSVKTTLVSLTQLRCVKYLQETAISGKKTTYYYYNEEGIHILLYSGLIIDEIITQMRVNDEEEHKQLVAEIVQNVISLGSLTVEDYLSSVTSDSMKYTISSLFVQLCEMGYLIQISKLHYTPIEDLWQFLYEKHYKNIPRNSPLSDLKKRSQAKMNAKTDFAKIINKPNELSQILTVDPKTSLRIVKPTVSLTINLDRFMKGRRSKQLINLAKTRVGSVTAQVYKIALRLTEQKSPKIRDPLTQTGLLQDLEEAKSFQDEAELVEEKTPGLTFNAIDLARHLPAELDLRGSLLSRKPSDNKKRSGSNAAASLPSKKLKTEDGFVIPALPAAVSKSLQESGDTQEEDEEEEDLDADTEDPHSASLINSHLKILASSNFPFLNETKPGVYYVPYSKLMPVLKSSVYEYVIASTLGPSAMRLSRCIRDNKLVSEKIINSTALMKEKDIRSTLASLIRYNSVEIQEVPRTADRSASRAVFLFRCKETHSYNFMRQNLEWNMANLLFKKEKLKQENSTLLKKANRDDVKGRENELLLPSELNQLKMVNERELNVFARLSRLLSLWEVFQMA

Experiments:
Assay in all cases: cryo-EM structure
[1] = target: B2
[2] = target: B4
[3] = target: T1, RNA polymerase III subunit C160 (S. cerevisiae, UniProt P04051 1-1460)
T1 sequence: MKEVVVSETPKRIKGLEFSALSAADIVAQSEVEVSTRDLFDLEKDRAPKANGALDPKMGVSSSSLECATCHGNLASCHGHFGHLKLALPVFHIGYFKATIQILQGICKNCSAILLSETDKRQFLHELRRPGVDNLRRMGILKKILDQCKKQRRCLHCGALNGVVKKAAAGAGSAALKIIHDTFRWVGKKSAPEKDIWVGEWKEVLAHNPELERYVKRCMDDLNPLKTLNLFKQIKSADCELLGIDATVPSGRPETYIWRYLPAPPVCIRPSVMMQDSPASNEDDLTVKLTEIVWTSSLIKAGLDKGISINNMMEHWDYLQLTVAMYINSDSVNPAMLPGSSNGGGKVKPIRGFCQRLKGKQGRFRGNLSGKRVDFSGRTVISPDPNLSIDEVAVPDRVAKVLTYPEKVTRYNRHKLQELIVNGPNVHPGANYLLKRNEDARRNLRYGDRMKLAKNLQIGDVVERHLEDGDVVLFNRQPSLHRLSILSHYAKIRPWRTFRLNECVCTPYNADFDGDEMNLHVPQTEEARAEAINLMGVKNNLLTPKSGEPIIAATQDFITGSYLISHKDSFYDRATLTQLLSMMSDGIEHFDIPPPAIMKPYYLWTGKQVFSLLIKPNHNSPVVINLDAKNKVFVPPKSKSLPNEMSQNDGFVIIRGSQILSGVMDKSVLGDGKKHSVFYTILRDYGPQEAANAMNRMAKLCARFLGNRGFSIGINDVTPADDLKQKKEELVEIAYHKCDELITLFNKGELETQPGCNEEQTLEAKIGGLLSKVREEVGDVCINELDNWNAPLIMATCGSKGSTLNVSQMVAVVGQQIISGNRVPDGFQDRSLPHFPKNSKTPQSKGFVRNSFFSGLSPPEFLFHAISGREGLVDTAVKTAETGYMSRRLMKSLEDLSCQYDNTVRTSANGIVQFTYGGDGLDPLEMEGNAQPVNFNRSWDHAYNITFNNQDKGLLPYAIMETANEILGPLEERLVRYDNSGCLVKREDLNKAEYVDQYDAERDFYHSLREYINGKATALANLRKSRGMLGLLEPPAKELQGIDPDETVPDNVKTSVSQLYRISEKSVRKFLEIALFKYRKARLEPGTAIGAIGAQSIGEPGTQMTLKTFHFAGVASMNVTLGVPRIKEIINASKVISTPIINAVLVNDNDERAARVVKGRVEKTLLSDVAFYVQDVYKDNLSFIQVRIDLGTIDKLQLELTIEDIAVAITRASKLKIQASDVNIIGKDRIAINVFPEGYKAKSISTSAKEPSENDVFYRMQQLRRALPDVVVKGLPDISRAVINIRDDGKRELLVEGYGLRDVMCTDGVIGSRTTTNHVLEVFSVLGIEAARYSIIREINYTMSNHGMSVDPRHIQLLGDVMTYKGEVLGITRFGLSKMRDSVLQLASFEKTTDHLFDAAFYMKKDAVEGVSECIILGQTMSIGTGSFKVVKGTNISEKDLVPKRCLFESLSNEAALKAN

B1: RNA polymerase III subunit C31 (natural protein, S. cerevisiae, UniProt P17890 1-251, looked up)
chain: MSSYRGGSRGGGSNYMSNLPFGLGYGDVGKNHITEFPSIPLPINGPITNKERSLAVKYINFGKTVKDGPFYTGSMSLIIDQQENSKSGKRKPNIILDEDDTNDGIERYSDKYLKKRKIGISIDDHPYNLNLFPNELYNVMGINKKKLLAISKFNNADDVFTGTGLQDENIGLSMLAKLKELAEDVDDASTGDGAAKGSKTGEGEDDDLADDDFEEDEDEEDDDDYNAEKYFNNGDDDDYGDEEDPNEEAAF
binding result [1]: binds | binding result [2]: binds

B2
binding result [3]: binds

B3: RNA polymerase III stalk subunit C25 (natural protein, S. cerevisiae)
chain: MFILSKIADLVRIPPDQFHRDTISAITHQLNNKFANKIIPNVGLCITIYDLLTVEEGQLKPGDGSSYINVTFRAVVFKPFLGEIVTGWISKCTAEGIKVSLLGIFDDIFIPQNMLFEGCYYTPEESAWIWPMDEETKLYFDVNEKIRFRIEREVFVDVKPKSPKERELEERAQLENEIEGKNEETPQNEKPPAYALLGSCQTDGMGLVSWWE
binding result [3]: binds

B4
binding result [3]: binds

B5: RNA polymerase III subunit C34 (natural protein, S. cerevisiae)
chain: MSGMIENGLQLSDNAKTLHSQMMSKGIGALFTQQELQKQMGIGSLTDLMSIVQELLDKNLIKLVKQNDELKFQGVLESEAQKKATMSAEEALVYSYIEASGREGIWSKTIKARTNLHQHVVLKCLKSLESQRYVKSVKSVKFPTRKIYMLYSLQPSVDITGGPWFTDGELDIEFINSLLTIVWRFISENTFPNGFKNFENGPKKNVFYAPNVKNYSTTQEILEFITAAQVANVELTPSNIRSLCEVLVYDDKLEKVTHDCYRVTLESILQMNQGEGEPEAGNKALEDEEEFSIFNYFKMFPASKHDKEVVYFDEWTI
binding result [3]: binds | binding result [2]: binds
